These results are taken from patent publication US6537765B2, “GPR10 as a target for identifying weight modulating compounds” (Millennium Pharmaceuticals, Inc., priority 1998, dated 2003).

No end group written: not given here.

Assay [1] has as its target T1, GPR10 (Mus musculus, UniProt Q6VMN6).
T1 construct: from tissue; host or cells: brain of living C57BL/6J mice (lean and ob/ob), intracerebroventricular dosing
T1 sequence (Q6VMN6 1-370): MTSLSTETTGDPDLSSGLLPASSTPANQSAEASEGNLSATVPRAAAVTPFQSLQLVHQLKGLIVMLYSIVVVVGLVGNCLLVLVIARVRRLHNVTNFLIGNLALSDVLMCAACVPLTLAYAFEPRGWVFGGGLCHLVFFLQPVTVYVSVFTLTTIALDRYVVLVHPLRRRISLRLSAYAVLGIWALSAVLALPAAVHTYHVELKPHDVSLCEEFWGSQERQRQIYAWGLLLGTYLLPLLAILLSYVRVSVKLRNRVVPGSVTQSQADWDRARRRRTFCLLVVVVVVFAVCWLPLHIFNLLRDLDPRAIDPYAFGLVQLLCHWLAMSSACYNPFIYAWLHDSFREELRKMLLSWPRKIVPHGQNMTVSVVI
The assay can be described thus: Metabolic rate of mice in an open-circuit calorimeter after intracerebroventricular PrRP. Type of assay: in vivo. Conditions: 5 μg PrRP intracerebroventricular vs saline. How it is done: The effect of a 5 μg dose of PrRP on the metabolic rate of male mice denied or permitted access to food was investigated as follows. Male C57BL/6J mice maintained as described above were placed in an open-circuit calorimeter coupled to a feeding monitor. The mice were administered 5 μg of PrRP or saline intracerebroventricularly at 1 hr and 45 min after the start of metabolic monitoring. One group (n=6) of mice was allowed access to food and one group of mice (n=6) was not allowed access to food. Respiratory quotient was calculated as the ratio of CO2 production/O2 consumption. Metabolic rate (kcal/g/h) was computed based on O2 consumption and respiratory rate quotient.

The subject of assay [2] is anterior pituitary cells of lactating rats. As to conditions: anterior pituitary cells of lactating rats in vitro; cited from earlier work.
The target in another assay is T2, hGR3 (Homo sapiens, UniProt P49683).
T2 sequence (P49683 1-370): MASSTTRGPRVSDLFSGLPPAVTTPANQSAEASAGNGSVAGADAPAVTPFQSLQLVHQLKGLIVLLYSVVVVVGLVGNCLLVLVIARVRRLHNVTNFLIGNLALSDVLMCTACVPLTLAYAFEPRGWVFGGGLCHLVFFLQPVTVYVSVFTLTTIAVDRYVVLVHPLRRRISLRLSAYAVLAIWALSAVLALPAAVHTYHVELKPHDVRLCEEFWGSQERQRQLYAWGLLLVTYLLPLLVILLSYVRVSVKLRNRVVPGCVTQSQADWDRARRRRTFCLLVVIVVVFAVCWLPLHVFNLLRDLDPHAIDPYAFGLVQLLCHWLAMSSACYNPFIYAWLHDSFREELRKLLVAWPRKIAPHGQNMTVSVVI
As to conditions: receptor expressed in human pituitary, nearly identical to GPR10; cited from earlier work.

For assay [3], the target named is T1, GPR10. Briefly: Food intake after intracerebroventricular injection of PrRP in mice. Type of assay: in vivo. Conditions: 0.1, 1, 5, 10 mg PrRP intracerebroventricular vs saline, measured for two hours after treatment. How it is done: A 31 amino acid amidated synthetic peptide having the sequence of rat PrRP ([…]-NHz; SEQ ID NO:4; Hinuma et al., (1998) Nature 393:272-76) was used to examine the effect of GPR10 modulators on food intake.
Male and female lean and male obese ob/ob C57BL/6J mice were individually housed in macrolon cages (22±2° C.; 12:12 hr light:dark cycle with lights off at 6 pm). Tap water and mouse chow were given ad libitum. Mice were stereoaxically implanted with a chronic guide cannula aimed to the third ventricle (intracerebroventricular) one week prior to the initiation of the experiment.
Mice (15/group) were treated with […] of PrRP peptide or saline (control) by intracerebroventricular injections at 9:00 am. Food intake was measured for two hours after treatment.

Turning to “PrRP: 31 amino acid amidated synthetic peptide having the sequence of rat PrRP (SRAHQHSMETRTPDINPAWYTGRGIRPVGRF-NHz; SEQ ID NO:4); a GPR10 ligand (SRAHQHSMETRTPDINPAWYTGRGIRPVGRF-NH2; listed as Mus musculus)”, the metabolic rate entry is reported as “increases the metabolic rate” in the assay with GPR10 [1] (lean male C57BL/6J mice having access to food, FIG. 7) and “increases the metabolic rate” with GPR10 [1] (lean male C57BL/6J mice having no access to food, FIG. 6). Moreover, the release of prolactin entry in assay [2] was “stimulates release of prolactin”. Besides, the “binding to hGR3” value in the assay with hGR3 was “binds to hGR3”. In addition, the food intake result is “increased food intake” with GPR10 [3] (lean female C57BL/6J mice, FIG. 4); “increased food intake” with GPR10 [3] (lean male C57BL/6J mice, FIG. 3); “increased food intake” with GPR10 [3] (male obese ob/ob C57BL/6J mice, FIG. 5).
